Assay results from US20210380703A1 (RIGEL PHARMACEUTICALS, published 2021).
Substitutions are numbered along the chain they refer to.

B1: 375_G10 (antibody, V domains shown)
VH: EVQLLESGGGLVQPGGSLRLSCAASGFTFSSYGMNWVRQAPGKGLEWVSSINYNGGYKSYADSVKGRFTISRDNSKNTLYLQMNSLRAEDTAVYYCARSATWHDTHLDYWGQGTLVTVSS
VL: DIQMTQSPSSLSASVGDRVTITCRASQSIVTYLNWYQQKPGKAPKLVIYAATSRHSGVPSRFSGSGSGTDFTLTISSLQPEDFATYYCQQSYDTPLTFGGGTKVEIK
notes: VH and VL only
B2: 375_G12 (antibody, V domains shown)
VH: B1 VH with S30D, N35H, K58T
VL: B1 VL with T31S, L33V, V47L
notes: VH and VL only
B3: 376_A01 (antibody, V domains shown)
VH: B1 VH with S30D, S50N, K58T, S59G
VL: B1 VL with T31S, V47L, H55A, D93S
notes: VH and VL only
B4: 376_C07 (antibody, V domains shown)
VH: B1 VH with G33S, S50G, G55S, S59G
VL: B1 VL with V30L, T31S, L33V, V47L, T94L
notes: VH and VL only
B5: 376_E09 (antibody, V domains shown)
VH: B1 VH with S30D, G33S, S50G, G55S
VL: B1 VL with V30L, V47L
notes: VH and VL only
B6: 376_G01 (antibody, V domains shown)
VH: B1 VH with S30D, S31D, G33S, S50G, G55S
VL: B1 VL with V30L, T31S, L33V, A51V, H55A, D93E, T94L
notes: VH and VL only
B7: 376_G11 (antibody, V domains shown)
VH: B1 VH with G33S, S50G, G55S
VL: B1 VL with L33V, R54L, H55A, D93N, T94L
notes: VH and VL only
B8: 376_H08 (antibody, V domains shown)
VH: B1 VH with S30D, S50N, S59G
VL: B1 VL with V30L, V47L, Y92D, D93S, T94L
notes: VH and VL only
B9: 368_H10 (antibody, V domains shown)
VH: B1 VH with G33S, G55S, S59G
VL: B1 VL with T31S, L33V, A51V, R54L, H55A, D93E
notes: VH and VL only
B10: 374_A05 (antibody, V domains shown)
VH: B1 VH with S31D, S49A, S50N, S59G, S99G
VL: B1 VL with T31R, R54L, H55A, D93E, T94L
B11: 374_C03 (antibody, V domains shown)
VH: B1 VH with S30D, G33S, S50G, G55S, K58T, T101N, H106A
VL: B1 VL with V30L, V47L, H55A, T94S
B12: 365_E05 (antibody, V domains shown)
VH: B1 VH with N35H, S49A, S50G, K58T, T101N, H106A
VL: B1 VL with T31S, L33V, V47L, R54L, H55A, T94N
B13: 365_E07 (antibody, V domains shown)
VH: B1 VH with S30D, N35H, S50G, G55S, K58T, R98K, T101N
VL: B1 VL with V30L, T31S, V47L, H55A, T94N
B14: 368_D10 (antibody, V domains shown)
VH: B1 VH with S30D, S49A, S50G, G55S, K58T, H106A
VL: B1 VL with V30L, T31S, H55A, T94S
B15: 368_F03 (antibody, V domains shown)
VH: B1 VH with S30D, G33S, S49A, S50G, G55S, K58T, S59G, R98K, T101N, H106A
VL: B1 VL with V30I, T31S, T94S
B16: 369_D02 (antibody, V domains shown)
VH: B1 VH with S31D, G33S, S50N, G55S, K58T, S59G, T101N, H106A
VL: B1 VL with V30L, T31S, A51V, H55A
B17: 369_F01 (antibody, V domains shown)
VH: B1 VH with S50G, T101N, H106A
VL: B1 VL with V30L, L33V, V47L, H55A, D93E, T94L
B18: 370_C03 (antibody, V domains shown)
VH: B1 VH with S49A, S50G, S59G, T101N, H106A
VL: B1 VL with V30L, V47L, A50Y, A51V, S53N, H55Q, D93S, T94S
B19: 370_D04 (antibody, V domains shown)
VH: B1 VH with S30D, G33S, S49A, S50N, G55S, S59G, T101N, H106A
VL: B1 VL with V30L, H55A, T94N
B20: 370_E09 (antibody, V domains shown)
VH: EVQLLESGGGLVQPGGSLRLSCAASGFTFDDSSMHWVRQAPGKGLEWVSNINYNGGYTGYADSVKGRFTISRDNSKNTLYLQMNSLRAEDTAVYYCAKSANWHDTALDYWGQGTLVTVSS
VL: B1 VL with V30L, T31S, L33V, H55A, D93E, T94L
B21: 372_F08 (antibody, V domains shown)
VH: B20 VH with D30S, S32Y, H35N, G55S, K98R
VL: B1 VL with V30L, L33V, H55A
B22: 373_A10 (antibody, V domains shown)
VH: B1 VH with S50G, G55S, K58T, T101N, H106A
VL: B1 VL with V30L, T31S, H55A, T94L
B23: 373_C02 (antibody, V domains shown)
VH: B20 VH with S32Y, H35N, N50G, G55S, T58K, K98R
VL: B1 VL with V30L, T31S, L33V, V47L, H55A, D93N
B24: 373_D04 (antibody, V domains shown)
VH: B20 VH with D31S, S32Y, H35N, N50G, G55S, T58K, K98R
VL: B1 VL with V30L, T31S, V47L, T94S
B25: 373_D10 (antibody, V domains shown)
VH: B20 VH with D31S, S32Y, H35N, G55S, T58K, K98R
VL: B1 VL with V30L, T31S, L33V, V47L, H55A, T94L
B26: 374_B06 (antibody, V domains shown)
VH: B1 VH with S30D, G33S, S49A, S50G, G55S, S59G, T101N
VL: B1 VL with V30L, L33V, V47L, H55A
B27: 374_C06 (antibody, V domains shown)
VH: B20 VH with S32Y, H35N, N50S, G55S, T58K, K98R
VL: B1 VL with V30L, L33V, V47L, H55A, D93N, T94S
B28: 374_C10 (antibody, V domains shown)
VH: B1 VH with G33S, S59G, S99G
VL: B1 VL with V47L, R54L, H55A, D93N
B29: 374_D08 (antibody, V domains shown)
VH: B1 VH with S30D, S50G, G55S, K58T, S59G, T101N
VL: B1 VL with V30L, V47L, D93E, T94S
B30: 374_G05 (antibody, V domains shown)
VH: B1 VH with G33S, S50N, G55S, S59G, S99G
VL: B1 VL with V30I, T31S, V47L, H55A, T94L
B31: 366_B12 (antibody, V domains shown)
VH: B1 VH with G33S, S49A, S50G, G55S, S59G, T101N, H106A
VL: B1 VL with V30L, L33V, V47L, H55A, T94N
B32: 365_A12 (antibody, V domains shown)
VH: B1 VH with N35H, S49A, S50G, K58T, R98K, T101N
VL: B1 VL with V30L, L33V, V47L, D93E, T94N
B33: 365_E02 (antibody, V domains shown)
VH: B1 VH with G33S, S49A, S50N, K58T, R98K
VL: B1 VL with V30I, T31S, V47L, H55A, D93E, T94N
B34: 367_H06 (antibody, V domains shown)
VH: B1 VH with S50N, K58T, S59G, T101N
VL: B1 VL with V30I, V47L, H55A
B35: 367_H11 (antibody, V domains shown)
VH: B1 VH with S49A, S50G, S59G, T101N, H106A
VL: B1 VL with V30I, T31S, L33V, H55A, D93N, T94S
B36: 369_G01 (antibody, V domains shown)
VH: B1 VH with G33S, S50N, G55S, T101N, H106A
VL: B1 VL with V30L, T31S, L33V, V47L, H55A, D93S, T94S
B37: 369_H06 (antibody, V domains shown)
VH: B1 VH with S49A, S50N, T101N, H106A
VL: B1 VL with T31S, L33V, V47L, H55A
B38: 370_A12 (antibody, V domains shown)
VH: B1 VH with S49A, S50G, K58T, T101N, H106A
VL: B1 VL with V30L, V47L, R54L, H55A, T94S
B39: 370_C05 (antibody, V domains shown)
VH: B20 VH with D30S, D31S, S32Y, H35N, S49A, N50G, G55S, K98R
VL: B1 VL with V30L, T31S, L33V, H55A, D93N, T94S
B40: 370_H01 (antibody, V domains shown)
VH: B1 VH with G33S, S50G, G55S, S59G, T101N, H106A
VL: B1 VL with V30I, T31S, V47L, A51V, H55A
B41: 371_B07 (antibody, V domains shown)
VH: B20 VH with D31S, S32Y, H35N, S49A, N50G, G59S, K98R
VL: B1 VL with V30L, L33V, V47L, H55A, D93E, T94L

Target: T1, biotinylated goat anti-human kappa light chain
T1 construct: Positive control of the ELISA
Assay: ELISA, positive control; note: test concentration or dose not given here
Summary of the method: (§1)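 Binding signal was read by ELISA after ACVR2A-specific monoclonal antibodies were tested against human ACVR2A and mouse ACVR2A, with human Fc as the negative control.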
Throughout, for optical density: test concentration or dose not given here.

Binder | optical density [OD]
B1 | 3.3
B2 | 3.3
B3 | 2.98
B4 | 3.42
B5 | 3.48
B6 | 3.18
B7 | 3.54
B8 | 3.53
B9 | 3.36

Target: T2, human ACVR2A (human, UniProt P27037 20-135, limits assumed)
T2 construct: also called activin receptor, type II A
T2 sequence (P27037 20-135 limits assumed): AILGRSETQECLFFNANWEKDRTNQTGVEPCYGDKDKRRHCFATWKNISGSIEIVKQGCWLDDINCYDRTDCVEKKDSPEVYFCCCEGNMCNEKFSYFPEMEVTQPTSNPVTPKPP
Assay: ELISA
Summary of the method: as §1

Binder | optical density [OD]
B1 | 3.48
B2 | 3.36
B3 | 3.24
B4 | 3.7
B5 | 3.74
B6 | 3.34
B7 | 3.65
B8 | 3.31
B9 | 2.28

Target: mouse ACVR2A (mouse, UniProt P27038 20-135, limits assumed)
Sequence (P27038 20-135 limits assumed): as the sequence (P27037 20-135 limits assumed) above, with K20R, V73I counted along it
Assay: ELISA
Summary of the method: as §1

Binder | optical density [OD]
B1 | 3.64
B2 | 3.29
B3 | 3.66
B4 | 3.71
B5 | 3.76
B6 | 3.66
B7 | 3.6
B8 | 3.28
B9 | 2.16

Target: ACVR2A on primary human myotubes (human, UniProt P27037 20-513)
Sequence (P27037 20-513): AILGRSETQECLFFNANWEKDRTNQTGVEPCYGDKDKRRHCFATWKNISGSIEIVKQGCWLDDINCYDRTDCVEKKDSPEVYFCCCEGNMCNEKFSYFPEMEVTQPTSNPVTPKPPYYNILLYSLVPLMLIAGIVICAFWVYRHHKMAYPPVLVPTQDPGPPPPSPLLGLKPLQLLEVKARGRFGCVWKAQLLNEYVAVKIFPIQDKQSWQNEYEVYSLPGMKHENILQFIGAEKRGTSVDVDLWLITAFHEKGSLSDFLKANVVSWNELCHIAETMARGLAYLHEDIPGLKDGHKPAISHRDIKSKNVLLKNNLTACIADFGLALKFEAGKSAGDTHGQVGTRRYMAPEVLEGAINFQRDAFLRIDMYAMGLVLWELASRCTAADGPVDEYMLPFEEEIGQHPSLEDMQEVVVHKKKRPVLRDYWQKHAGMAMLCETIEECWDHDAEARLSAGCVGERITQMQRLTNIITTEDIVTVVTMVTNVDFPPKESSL
Assay: cell-based or functional assay

Binder | Phospho-SMAD3 Human Skeletal Muscle GDF8
B10 | 0.0081
B11 | 0.0094
B12 | 0.244
B13 | 0.518
B14 | 0.0601
B15 | 0.812
B16 | 0.0135
B17 | 0.0317
B18 | 0.0029
B19 | 0.0074
B20 | 0.0093
B21 | 0.023
B22 | 0.0111
B23 | 0.0083
B24 | 0.0078
B25 | 0.006

Binder | Phospho-SMAD3 Human Skeletal Muscle GDF8
B26 | 0.0407
B27 | 0.0138
B28 | 0.0582
B29 | 0.23
B30 | 0.0132
B31 | 0.0392
B32 | 0.903
B33 | 0.341
B34 | 0.108
B35 | 0.0703
B36 | 0.0116
B37 | 0.0068
B38 | 0.0632
B39 | 0.0082
B40 | 0.0093
B41 | 0.0402
